Changes are numbered by the printed parent chain.
B1: antibody 381 (antibody, V domains shown)
VH: QVQLVESGGGVVQPGRSLRLSCAASGFTFSSYAMHWVRQAPGKGLEWVAVISYDGSNKYYADSVKGRFTISRDNSKNTLYLQMNSLRAEDTAVYYCARDRQYYDILTGYYLPTSEYYFDYWGQGTLVTVSS
VL: DIQMTQSPSSVSASVGDRVTITCRASQGISSWLAWYQQKPGKAPKLLIYAASSLQSGVPSRFSGSGSGTDFTLTISSLQPEDFATYYCQQANSFPPTFGGGTKVEIK
B2: antibody 291 (antibody, V domains shown)
VH: QVQLVESGGGVVQPGRSLRLSCAASGFTFSSYAMHWVRQAPGKGLEWVAVISYDGSNKYYADSVKGRFTISRDNSKNTLYLQMNSLRAEDTAVYYCARASGGSYFGGMDVWGQGTTVTVSS
VL: QSALTQPASVSGSPGQSITISCTGTSSDVGGYNYVSWYQQHPGKAPKLMIYEVSNRPSGVSNRFSGSKSGNTASLTISGLQAEDEADYYCSSYTSSSTLYVFGTGTKVTVL
B3: antibody 399 (antibody, V domains shown)
VH: QVQLVQSGAEVKKPGASVKVSCKASGYTFTSYGISWVRQAPGQGLEWMGWISAYNGNTNYAQKLQGRVTMTTDTSTSTAYMELRSLRSDDTAVYYCARDSGYDWAGGHYYYYGMDVWGQGTTVTVSS
VL: B2 VL with Y100V, T104G, V108L
B4: antibody 394 (antibody, V domains shown)
VH: QVQLVQSGAEVKKPGASVKVSCKASGYTFTGYYMHWVRQAPGQGLEWMGWINPNNGGTNSAQKFQGRVTMTRDTSISTAYMELNRLRSDDTAVYYCARDITTTAGTDYYYGMDVWGQGTTVTVSS
VL: SYELTQPPSVSVSPGQTARITCSGDALPKQYAYWYQQKPGQAPVLVICKDSERPSGIPERFSGSSSGTTVTLTISGVQAEDEADYYCQSADSSGTYIVFGTGTKVTVL
B5: antibody 397 (antibody, V domains shown)
VH: QVQLVESGGGVVQPGRSLRLSCAASGFTFSSYGMHWVRQAPGKGLESVAVISYDGSNKYYADSVKGRFTISRDNSKNTLYLQMNSLRAEDTAVYYCAKEGQWELQGNAFDIWGQGTMVTVSS
VL: B4 VL with C48Y, A90G, I97R, T101G, V105L
B6: antibody 387 (antibody, V domains shown)
VH: QVQLVESGGGVVQPGRSLRLSCAASGFTFSSYGMHWVRQAPGKGLEWVAVISYDGSNKYYADSVKGRFTISRDNSKNTLYLQMNSLRAEDTAVYYCAKDDTKNYGDLDIDYWGQGTLVTVSS
VL: SYELTQPSSVSVSPGQTARITCSGDVLAKKYARWFQQKPGQAPVLVIYKDSERPSGIPERFSGSSSGTTVTLTISGAQVEDEADYYCYSAADNNLGVFGGGTKLTVL
B7: antibody 410 (antibody, V domains shown)
VH: QVQLVQSGAEVKKPGASVKVSCKASGYTFTSYGISWVRQAPGQGLEWMGWISAYNGNTNYAQKLQGRVTMTTDTSTSTAYMELRSLRSDDTAVYYCARGRITIFGVEYYYGMDVWGQGTTVTVSS
VL: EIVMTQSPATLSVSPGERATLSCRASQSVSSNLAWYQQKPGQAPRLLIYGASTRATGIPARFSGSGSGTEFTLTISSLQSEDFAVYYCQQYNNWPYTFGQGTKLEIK
B8: antibody 404 (antibody, V domains shown)
VH: QVQLVESGGGVVQPGRSLRLSCAASGFTFSSYGMHWVRQAPGKGLEWVAVIWYDGSNKYYADSVKGRFTISRDNSKNTLYLQMNSLRAEDTAVYYCARLAVDISFDGSDGMDVWGQGTTVTVSS
VL: SYELTQPPSVSVSPGQTARITCSGDALPKKYAYWYQQKSGQAPVLVIYEDSKRPSGIPERFSGSSSGTMATLTISGAQVEDEADYYCYSTDSSGKGVFGTGTKVTVL
B9: antibody 510 (antibody, V domains shown)
VH: QVQLQESGPGLVKPSQTLSLTCTVSGGSISSGSYYWSWIRQPAGKGLEWIGRIYTSGSTNYNPSLKSRVTISVDTSKNQFSLKLSSVTAADTAVYYCAREGQWLYRFDYWGQGTLVTVSS
VL: QSALTQPASVSGSPGQSITISCTGTSSDVGNYDLVSWYQQHPGKAPKLVIYGVTKRPSGVSNRFSGSKSGNTASLTISGLQAEDEADYYCCSYATGDTSVFGTGTKVTVL
B10: antibody 368 (antibody, V domains shown)
V domain 1: QITLKESGPTLVKPTETLTLTCAFSGFSLTKTGEAAGWIRQAPGRALEWVTVIFWDDDKRYSPSLQNRLTVTKDTSKNVVVLTMTNVDPVDTATYFCWAMGGPGKEFFGQGTRVAVSS
V domain 2: QSVLTQPPSVSGAPGQRVTVSCTGTSSSIGPYSDVHWYQHIPGKAPRLLIFGTSNRPSGVPARFSGSKSGSSASLVIAGLQAEDEADYYCQSYDSSLGEIYVFGTGTTVTVL
B11: antibody 258 (antibody, V domains shown)
VH: QVQLQESGPGLVKPSETLSLTCTVSGGSISSYYWSWIRQPAGKGLEWIGRIYTSGSTNYNPSLKSRVTMSVDTSKNQFSLKLSSVTAADTAVYYCAAGYGSIDYWGQGTLVTVSS
VL: not shown
B12: antibody 370 (antibody, V domains shown)
VH: QVQLVESGGGVVPPGRSLSLPCAASGFTFSAYAMHWLRQAPGKGLEWVAVISYDGTVKYVADSVRGRFTISRDNSNNTLYLQMTSLRSDDTAVYYCARDLGALAAAPTVYFVHWGQGTLVTVSS
VL: SYVLTQPPSVSVAPGKTATITCAGEDIGRKSVHWYQQKPGQAPVLVIFYYSDRPSGIPDRFSGSVSGNTATLTIGRVEAGDEADYFCQVWDRTTNHVIFGGGTKVTVL
B13: antibody 401 (antibody, V domains shown)
VH: QVQLVQSGAEVKKPGSSVKVSCKASGGTFSSYAISWVRQAPGQGLEWMGRIIPILGIANYAQKFQGRVTIIADKSTSTAYMELSSLRSEDKAVYYCAREGKSDSSSALWYFDLWGRGTLVTVSP
VL: not shown
B14: antibody 391 (antibody, V domains shown)
VH: EVQLVESGGGLVQPGGSLRLSCAASGFTFSSYWMHWVRQAPGKGLVWVSRINSDGSSTSYADSVKGRFTISRDNAKNTLYLQMNSLRAEDTAVYYCALGPLDIVGSYYYYGMDVWGQGTTVTVSS
VL: NFMLTQPHSVSESPGKTVTISCTGSSGSIASNYVQWYQQRPGSAPTTVIYEDNQRPSGVPDRFSGSIDSSSNSASLTISGLKTEDEADYYCQSYDSSNQDVVFGGGTKLTVL
B15: antibody 402 (antibody, V domains shown)
VH: QVQLVQSGAEVKKPGASVKVSCKVSGYTLTELSMHWVRQAPGKGLEWMGGFDPEDVETIYAQKFQGRVTMTEDTSTDTAYMELSSLRSEDTAVYYCATGVAVVGTSHSYYYYYGMDVWGQGTTVTVSS
VL: DIQMTQSPSSLSASVGDRVTITCRASQGISNYLAWYQQKPGKVPKLLIYAASTLQSGVPSRFSGSGSGTDFTLTISSLQPEDVATYYCQKYNSAPFTFGPGTKVDIK

Legend:
[1] = target: SARS-CoV-2 full length spike protein, V367F mutant, expressed on CHO cells (SARS-CoV-2, UniProt P0DTC2 14-1273)
[2] = target: SARS-CoV-2 full length spike protein, D614G mutant, expressed on CHO cells (SARS-CoV-2, UniProt P0DTC2 14-1273)
[3] = target: SARS-CoV-2 full length spike protein, D614G mutant (SARS-CoV-2, UniProt P0DTC2 14-1273)
[4] = target: SARS-CoV-2 full length spike protein, V483A mutant, expressed on CHO cells (SARS-CoV-2, UniProt P0DTC2 14-1273)

Binder	median fluorescence fold over isotype control [1] [fold over isotype]	median fluorescence fold over isotype control [2] [fold over isotype]	median fluorescence intensity, fold over isotype control [3] [fold over isotype]	median fluorescence intensity, fold over isotype control [4] [fold over isotype]
B1	43.6	67.9	–	–
B2	–	–	8.03	–
B3	30.6	70.1	–	–
B4	37.8	63.4	–	–
B5	32.8	7.97	–	–
B6	6.69	15.9	–	–
B7	7.64	17.9	–	–
B8	27.4	6.02	–	–
B9	–	–	–	1.06
B10	31.6	64.3	–	–
B11	–	–	6.88	–
B12	35.3	9.47	–	–
B13	35.5	8.76	–	–
B14	18.8	35.6	–	–
B15	46.9	67.8	–	–
